Data from publication PMC3716637, “Characterization of the Recombinant Exopeptidases PepX and PepN from Lactobacillus helveticus ATCC 12046 Important for Food Protein Hydrolysis” (PLoS ONE, 2013).
Read-outs that look alike come from different tables or passages of the source. Residues, ends and D or L forms follow the SMILES beside them.

How the values were obtained:
[1] = biological target: T1, PepX (X-prolyl dipeptidyl aminopeptidase) (Lactobacillus helveticus, UniProt Q59485); assay: inhibition of H-Ala-Pro-pNA hydrolysis; […] residual activity at […], […] at […]; assay type: biochemical
T1 construct: His-tagged recombinant full-length PepX (homodimer)
T1 sequence (Q59485 1-793): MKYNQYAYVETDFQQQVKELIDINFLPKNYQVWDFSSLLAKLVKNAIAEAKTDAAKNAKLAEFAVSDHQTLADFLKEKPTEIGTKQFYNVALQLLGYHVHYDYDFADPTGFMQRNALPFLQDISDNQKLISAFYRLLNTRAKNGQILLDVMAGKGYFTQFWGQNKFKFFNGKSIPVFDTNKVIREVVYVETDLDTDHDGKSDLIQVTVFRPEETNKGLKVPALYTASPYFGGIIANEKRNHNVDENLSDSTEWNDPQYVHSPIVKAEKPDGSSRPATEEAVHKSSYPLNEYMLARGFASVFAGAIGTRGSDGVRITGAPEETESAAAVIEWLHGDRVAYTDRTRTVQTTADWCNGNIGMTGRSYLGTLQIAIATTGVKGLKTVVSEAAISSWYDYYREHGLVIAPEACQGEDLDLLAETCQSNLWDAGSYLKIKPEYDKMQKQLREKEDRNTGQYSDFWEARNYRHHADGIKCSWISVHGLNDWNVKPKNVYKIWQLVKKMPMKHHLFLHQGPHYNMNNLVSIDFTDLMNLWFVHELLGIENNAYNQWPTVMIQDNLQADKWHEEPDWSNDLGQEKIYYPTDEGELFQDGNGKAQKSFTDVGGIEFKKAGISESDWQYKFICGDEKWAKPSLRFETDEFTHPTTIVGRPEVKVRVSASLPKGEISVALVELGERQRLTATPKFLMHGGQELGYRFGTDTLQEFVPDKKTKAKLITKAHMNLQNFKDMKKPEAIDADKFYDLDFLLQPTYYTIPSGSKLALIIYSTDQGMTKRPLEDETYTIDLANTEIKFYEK

[2] = biological target: T2, PepN (general aminopeptidase N) (Lactobacillus helveticus, UniProt S4THV9); assay: product inhibition of H-Ala-pNA hydrolysis; […] residual activity at […]; assay type: biochemical; settings: read-out: % residual activity at 10 mM
T2 construct: His-tagged recombinant full-length PepN (monomer)
T2 sequence (S4THV9 1-844): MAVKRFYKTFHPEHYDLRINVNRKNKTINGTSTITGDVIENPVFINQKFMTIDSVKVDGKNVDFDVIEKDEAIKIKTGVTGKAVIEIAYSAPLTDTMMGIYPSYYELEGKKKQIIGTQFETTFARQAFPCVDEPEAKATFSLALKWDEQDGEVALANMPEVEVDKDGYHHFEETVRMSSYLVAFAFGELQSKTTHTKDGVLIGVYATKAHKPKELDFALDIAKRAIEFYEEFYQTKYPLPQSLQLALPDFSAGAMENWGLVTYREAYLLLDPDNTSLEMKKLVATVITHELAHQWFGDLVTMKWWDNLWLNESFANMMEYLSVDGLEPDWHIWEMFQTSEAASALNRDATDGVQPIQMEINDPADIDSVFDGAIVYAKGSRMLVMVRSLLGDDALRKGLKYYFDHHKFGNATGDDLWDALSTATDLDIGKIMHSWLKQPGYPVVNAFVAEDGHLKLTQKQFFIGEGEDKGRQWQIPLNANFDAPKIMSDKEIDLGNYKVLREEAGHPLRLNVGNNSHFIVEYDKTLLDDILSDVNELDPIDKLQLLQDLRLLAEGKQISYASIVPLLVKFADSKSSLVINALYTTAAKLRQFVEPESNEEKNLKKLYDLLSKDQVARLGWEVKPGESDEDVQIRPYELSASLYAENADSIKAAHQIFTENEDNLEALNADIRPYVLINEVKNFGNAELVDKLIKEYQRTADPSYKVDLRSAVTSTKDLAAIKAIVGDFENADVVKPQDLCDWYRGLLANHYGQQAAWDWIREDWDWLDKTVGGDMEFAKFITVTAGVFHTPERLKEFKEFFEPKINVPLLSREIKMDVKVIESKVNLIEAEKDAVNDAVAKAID

[3] = biological target: T2, PepN (general aminopeptidase N); assay: as above; assay type: biochemical; settings: read-out: % residual activity at 10 mM; remark: listed apart in the source
[4] = biological target: T1, PepX (X-prolyl dipeptidyl aminopeptidase); assay: product inhibition kinetics with H-Ala-Pro-pNA, Lineweaver-Burk; assay type: biochemical
[5] = substrate: C[C@H](N)C(=O)N1CCC[C@H]1C(=O)Nc1ccc([N+](=O)[O-])cc1; assay: enzyme kinetics, p-nitroaniline release, Hanes plot; Km; assay type: biochemical, Lactobacillus helveticus
purified protein [6] = substrate: N=C(N)NCCC[C@H](N)C(=O)Nc1ccc([N+](=O)[O-])cc1; assay: purified protein; settings: Zn2+
purified protein [7] = substrate: CC(C)C[C@H](N)C(=O)Nc1ccc([N+](=O)[O-])cc1; assay: purified protein; assay type: biochemical, Lactobacillus helveticus; settings: Zn2+
purified protein [8] = substrate: C[C@H](N)C(=O)Nc1ccc([N+](=O)[O-])cc1; assay: purified protein; assay type: biochemical, Lactobacillus helveticus; settings: Zn2+
purified protein [9] = substrate: NCCCC[C@H](N)C(=O)Nc1ccc([N+](=O)[O-])cc1; assay: purified protein; assay type: biochemical, Lactobacillus helveticus; settings: Zn2+
purified protein [10] = substrate: N[C@@H](Cc1ccccc1)C(=O)Nc1ccc([N+](=O)[O-])cc1; assay: purified protein; assay type: biochemical, Lactobacillus helveticus; settings: Zn2+

Q: `O=S(=O)(F)Cc1ccccc1` [PMSF] was tested. Which “% residual activity at 10 mM” value [1] did it give?
A: 11

Q: `N=C(N)NCCC[C@H](N)C(=O)O` [L-Arg] was tested. Which remaining activity at 10000 µM [2] did it give?
A: 19%

Q: How did the remaining activity at 10000 µM [3] turn out when `N[C@@H](Cc1ccccc1)C(=O)O` [L-Phe] was run?
A: 24%

Q: Which Ki [4] does the source give for `N[C@@H](Cc1ccccc1)C(=O)N1CCC[C@H]1C(=O)O` [H-L-Phe-L-Pro-OH] (H-Phe-Pro-OH) here?
A: 30.1 mM

B1: PepX (X-prolyl dipeptidyl aminopeptidase) (Lactobacillus helveticus) (protein)
chain: MKYNQYAYVETDFQQQVKELIDINFLPKNYQVWDFSSLLAKLVKNAIAEAKTDAAKNAKLAEFAVSDHQTLADFLKEKPTEIGTKQFYNVALQLLGYHVHYDYDFADPTGFMQRNALPFLQDISDNQKLISAFYRLLNTRAKNGQILLDVMAGKGYFTQFWGQNKFKFFNGKSIPVFDTNKVIREVVYVETDLDTDHDGKSDLIQVTVFRPEETNKGLKVPALYTASPYFGGIIANEKRNHNVDENLSDSTEWNDPQYVHSPIVKAEKPDGSSRPATEEAVHKSSYPLNEYMLARGFASVFAGAIGTRGSDGVRITGAPEETESAAAVIEWLHGDRVAYTDRTRTVQTTADWCNGNIGMTGRSYLGTLQIAIATTGVKGLKTVVSEAAISSWYDYYREHGLVIAPEACQGEDLDLLAETCQSNLWDAGSYLKIKPEYDKMQKQLREKEDRNTGQYSDFWEARNYRHHADGIKCSWISVHGLNDWNVKPKNVYKIWQLVKKMPMKHHLFLHQGPHYNMNNLVSIDFTDLMNLWFVHELLGIENNAYNQWPTVMIQDNLQADKWHEEPDWSNDLGQEKIYYPTDEGELFQDGNGKAQKSFTDVGGIEFKKAGISESDWQYKFICGDEKWAKPSLRFETDEFTHPTTIVGRPEVKVRVSASLPKGEISVALVELGERQRLTATPKFLMHGGQELGYRFGTDTLQEFVPDKKTKAKLITKAHMNLQNFKDMKKPEAIDADKFYDLDFLLQPTYYTIPSGSKLALIIYSTDQGMTKRPLEDETYTIDLANTEIKFYEK
notes: His-tagged recombinant full-length PepX (homodimer)
Q: B1 was tested. Which Km [5] did it give?
A: 1300 µM

B2: PepN (general aminopeptidase N) (Lactobacillus helveticus) (protein)
chain: MAVKRFYKTFHPEHYDLRINVNRKNKTINGTSTITGDVIENPVFINQKFMTIDSVKVDGKNVDFDVIEKDEAIKIKTGVTGKAVIEIAYSAPLTDTMMGIYPSYYELEGKKKQIIGTQFETTFARQAFPCVDEPEAKATFSLALKWDEQDGEVALANMPEVEVDKDGYHHFEETVRMSSYLVAFAFGELQSKTTHTKDGVLIGVYATKAHKPKELDFALDIAKRAIEFYEEFYQTKYPLPQSLQLALPDFSAGAMENWGLVTYREAYLLLDPDNTSLEMKKLVATVITHELAHQWFGDLVTMKWWDNLWLNESFANMMEYLSVDGLEPDWHIWEMFQTSEAASALNRDATDGVQPIQMEINDPADIDSVFDGAIVYAKGSRMLVMVRSLLGDDALRKGLKYYFDHHKFGNATGDDLWDALSTATDLDIGKIMHSWLKQPGYPVVNAFVAEDGHLKLTQKQFFIGEGEDKGRQWQIPLNANFDAPKIMSDKEIDLGNYKVLREEAGHPLRLNVGNNSHFIVEYDKTLLDDILSDVNELDPIDKLQLLQDLRLLAEGKQISYASIVPLLVKFADSKSSLVINALYTTAAKLRQFVEPESNEEKNLKKLYDLLSKDQVARLGWEVKPGESDEDVQIRPYELSASLYAENADSIKAAHQIFTENEDNLEALNADIRPYVLINEVKNFGNAELVDKLIKEYQRTADPSYKVDLRSAVTSTKDLAAIKAIVGDFENADVVKPQDLCDWYRGLLANHYGQQAAWDWIREDWDWLDKTVGGDMEFAKFITVTAGVFHTPERLKEFKEFFEPKINVPLLSREIKMDVKVIESKVNLIEAEKDAVNDAVAKAID
notes: His-tagged recombinant full-length PepN (monomer)
Q: B2 was tested. Which Km (purified protein [6]) did it give?
A: 140 µM

Q: And the Km (purified protein [7])?
A: 170 µM

Q: What about the Vmax (purified protein [7]) of the same molecule?
A: 51100 µM/min

Q: And the Km (purified protein [8])?
A: 430 µM

Q: What about the Vmax (purified protein [8]) of the same molecule?
A: 46100 µM/min

Q: What about the Km (purified protein [9]) of the same molecule?
A: 140 µM

Q: And the Vmax (purified protein [9])?
A: 93100 µM/min

Q: And the Km (purified protein [10])?
A: 150 µM

Q: And the Vmax (purified protein [10])?
A: 15200 µM/min
